Residue numbers refer to the chain shown, from its start.
B1: Hu50A8F2-01 (antibody, V domains shown)
VH: QVQLVQSGAEVKKPGASVKVSCKASGYTFIDYYINWVRQAPGQGLEWMGWIFPGSGHTKYNENFKGRVTMTRDTSTSTVYMELSSLRSEDTAVYYCARGDRSALGYFDYWGQGTTVTVSS
VL: DIQMTQSPSSLSASVGDRVTITCTASSSVSSTYLHWYQQKPGKAPKLLIYSTSNLASGVPSRFSGSGSGTDFTLTISSLQPEDFATYYCHQYHRSPLTFGQGTKLEIK
B2: Hu50A8F2-03 (antibody, V domains shown)
VH: B1 VH
VL: B1 VL with M4L, A44S, F72Y
B3: Hu50A8F2-06 (antibody, V domains shown)
VH: B1 VH with R67K, R72V
VL: B1 VL with F72Y
B4: 50A8F2 chimeric (antibody, V domains shown)
VH: QIQLQQSGPELVKPGASVKISCKASGYTFIDYYINWVKQKPGQGLEWIGWIFPGSGHTKYNENFKGKATLTVDTSSSTAYMHLSSLTSEDTAVYFCARGDRSALGYFDYWGQGSTLTVSS
VL: QIVLTQSPAIMSASLGERVTMTCTASSSVSSTYLHWYQQKPGSSPKLWIYSTSNLASGVPARFSGSGSGTSYSLTFSSMEAEDAATYYCHQYHRSPLTFGAGTKLELK
B5: 47A5H2 chimeric (antibody, V domains shown)
VH: QVQLQQPGAELVRPGASVKLSCKGSGYSFTGYWMHWVKQRPGQGLEWIGMIHPSDSETRLNQKFKDKATLTVDKSSSTTYMQLSSPTSEDSAVYYCASEGLRRGSFAYWGQGTLVTVSA
VL: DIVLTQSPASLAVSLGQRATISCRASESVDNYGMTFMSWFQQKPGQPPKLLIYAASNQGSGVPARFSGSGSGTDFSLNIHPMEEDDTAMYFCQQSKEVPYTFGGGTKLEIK
B6: Hu47A5H2-07 (antibody, V domains shown)
VH: QVQLVQSGAEVKKPGASVKVSCKASGYSFTGYWMHWVRQAPGQGLEWMGMIHPSDSETRLNQKFKDRVTMTVDTSTSTVYMELSSLRSEDTAVYYCASEGLRRGSFAYWGQGTLVTVSS
VL: DIVLTQSPDSLAVSLGERATINCRASESVDNYGMTFMSWFQQKPGQPPKLLIYAASNQGSGVPDRFSGSGSGTDFTLTISSLQAEDVAVYYCQQSKEVPYTFGQGTKLEIK
B7: Hu22F10G3-3.4 (antibody, V domains shown)
VH: QVQLQESGPGLVKPSQTLSLTCTVSGYSLTSDFAWNWIRQHPGKGLEWMGDIRYSGSTDYNPSLKGRSTISRDTSKNQFSLKLSSVTAADTAVYYCARGGYYGYDEGYPMDYWGQGTLVTVSS
VL: DIVMTQSPDSLAVSLGERATISCRASESVDVYGNSFMHWYQQKPGQPPKLLIYLAFNLKSGVPARFSGSGSGTDFTLTISSLQAEDVATYYCQQNNEDPFTFGQGTKLEIK
B8: 22F10G3 chimeric (antibody, V domains shown)
VH: DVQLQESGPGQVKPSQSLSLTCTVTGYSLTSDFAWNWIRQFPGNRLEWMGDIRYSGSTDYNPSLKGRSSITRDTSKNQFFLQLNSVTTEDTATYYCARGGYYGYDEGYPMDYWGQGTSVTVSS
VL: NIVLTQSPASLAVSLGQRATISCRASESVDVYGNSFMHWYQQKTGQPPKLLIYLAFNLKSGVPARFSGSGSRTDFTLTIDPVEADDAATYYCQQNNEDPFTFGSGTKLEIK
B9: Hu22F10G3-1.1 (antibody, V domains shown)
VH: B7 VH with M49I, S68V, R72V
VL: B7 VL with S22N, A64D, T89V
B10: Hu22F10G3-2.3 (antibody, V domains shown)
VH: B7 VH with S68V
VL: B7 VL with A64D, T89V
B11: 39C5D6 (antibody, V domains shown)
VH: QVQLKESGPGLVAPSQSLSITCTVSGFSLTDYGVNWVRQTPGKGLEWLGMIWGDGSTDYNLPLKSRLSITKDNSKSQVFLKMNSLQTDDTARYYCARTYANYHYWYFDVWGAGTTVTVSS
VL: DIQMTQSPASLSASVGETVTITCRASGNIHNYLAWYQQKQGKSPQLLVYNAKTLEDGVPSRFSGSGSGTQYSLKINSLQPDDFGNYFCQHFWSTPYTFGGGTKLEIK
B12: 37G6A7 (antibody, V domains shown)
VH: B11 VH with T40P, L61S, P62A, S68T, T70S, A100G, N101T
VL: B11 VL with N50I, E55A, D81E, N85T, F87Y
B13: 92E12F2 (antibody, V domains shown)
VH: DVQLQESGPGLVKPSQSLSLTCSVTGYSITSGYYWNWIRQFPGNKLEWLGYISYDGSNNDNPSLTNRISISRDTSRNQFFLKFNSVTTDDSATYYCARGDFYGYVYWGQGTTLTVSS
VL: DIVLTQSPASLAVSLGQRATISCRASKSVSSSGYTYLHWYQQKPGQPPKLLIYLTSNLDSGVPARFSGSGSGTDFTLNIHPVEEEDAATYYCQHSRELPRTFGGGTKLEIK
B14: 62H1D6 (antibody, V domains shown)
VH: QVQLQQSGPELVRPGVSVKISCKGSGYTFTDYAMHWVKQSHAKSLEWIGVISTYYGNTNYNQKFKGRATMTVDKSSSTAYMELARLTSEDSAIYYCAREYGNYPYYYAMDYWGQGTSVTVSS
VL: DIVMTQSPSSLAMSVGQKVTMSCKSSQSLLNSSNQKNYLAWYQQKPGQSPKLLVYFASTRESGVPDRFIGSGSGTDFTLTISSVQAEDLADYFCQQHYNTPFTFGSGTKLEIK
B15: 57E2E4 chimeric (antibody, V domains shown)
VH: DVQLQESGPGLVKPSQSLSLTCSVTGYSISSGYYWNWIRQFPGNKLEWMAYISYDGSNNYNPSLKNRVSITRDTSKNQFFLRLNSVTAEDTATYYCTRGDFYGYVYWGQGTTLTVSL
VL: B13 VL with S28R, S31T, G33D, T35S, L37M, T55A, D59E, L98F
B16: 66G9C11 (antibody, V domains shown)
VH: HVQLQQSGPELVRPGASVKLSCKASGYIFFTFWMNWVKQRPGQGLEWIGQIFPASGSTNYNEMFEGKATLTVDTSSSTAYMQLSSLTSEDSAVYYCASLERAWFAYWGQGTLVTVSA
VL: DIVLTQSPATLSVTPGDRVSLSCRASQSINNYLHWYQQKSHESPRLLIKYASQSISGIPSRFSGSGSGADFTLSINSVETEDFGMYFCQQSNSWPPTFGGGTKLEIK
B17: 7B6C7 chimeric (antibody, V domains shown)
VH: B11 VH with T30N, T40P, G44A, L61S, P62A, S68T, Q86H, Y94F, A100N, N101Y
VL: B11 VL with A34S, K52E, E55A, S77N, D81E, N85S, F87Y
B18: 13H2D11 (antibody, V domains shown)
VH: B5 VH with G24A, G31S, H35N, T79A, L101F
VL: not shown
B19: Hu22F10G3-2.3-NA (antibody, V domains shown)
VH: B7 VH with S68V
VL: B7 VL with S35A, A64D, T89V
B20: Hu22F10G3-2.3-QS (antibody, V domains shown)
VH: B7 VH with S68V
VL: B7 VL with N34Q, A64D, T89V

Biological target: T1, cynomolgus KLRB1 on CHO-K1 (cynomolgus)
T1 chain: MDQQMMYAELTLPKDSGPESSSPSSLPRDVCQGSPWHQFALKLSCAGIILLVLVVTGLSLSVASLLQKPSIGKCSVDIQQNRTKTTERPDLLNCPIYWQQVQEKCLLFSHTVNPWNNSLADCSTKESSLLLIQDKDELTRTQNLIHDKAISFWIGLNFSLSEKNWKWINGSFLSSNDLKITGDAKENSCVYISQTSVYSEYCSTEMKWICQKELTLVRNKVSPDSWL
Test: FACS

**Q.** Does B1 bind?
**A.** Result: no binding

**Q.** Does B2 bind?
**A.** Result: no binding

**Q.** Does B3 bind?
**A.** Result: no binding

**Q.** Does B4 bind?
**A.** Result: no binding

Biological target: T1, cynomolgus KLRB1 on CHO-K1
Test: FACS
Remark: another data set of the same source

**Q.** B5 was tested. Which EC50 did it give?
**A.** Its EC50 is 2.59 nM.

**Q.** How did the EC50 turn out when B6 was run?
**A.** The EC50 was 10.8 nM.

The binders below were run against human KLRB1 ECD (human) (assay: SPR).
Sequence of human KLRB1 ECD (human) (chain, as listed by the source): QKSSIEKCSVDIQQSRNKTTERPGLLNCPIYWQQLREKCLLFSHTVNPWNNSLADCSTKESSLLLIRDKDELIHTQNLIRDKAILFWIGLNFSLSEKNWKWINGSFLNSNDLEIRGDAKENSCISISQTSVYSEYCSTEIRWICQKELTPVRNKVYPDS

**Q.** Which Kd does the source give for B5 here?
**A.** The Kd was 0.712 nM.

**Q.** Which Kd does the source give for B6 here?
**A.** Its Kd is 1.04 nM.

Biological target: human KLRB1 ECD (human)
Test: SPR
Remark: another data set of the same source

**Q.** Which Kd does the source give for B7 here?
**A.** The Kd was 0.129 nM.

**Q.** With B8 as the binder, how does the Kd read?
**A.** Its Kd is 0.0429 nM.

**Q.** B9 was tested. Which Kd did it give?
**A.** The Kd was 0.134 nM.

**Q.** Which Kd does the source give for B10 here?
**A.** The Kd was 0.103 nM.

Biological target: human KLRB1 ECD (human)
Test: SPR
Remark: another data set of the same source

**Q.** Which Kd does the source give for B1 here?
**A.** The Kd was 1.55 nM.

**Q.** For B2, which Kd is on record?
**A.** Its Kd is 0.665 nM.

**Q.** For B3, which Kd is on record?
**A.** The Kd was 0.828 nM.

**Q.** Which Kd does the source give for B4 here?
**A.** Its Kd is 0.229 nM.

What follows are binders tested against human KLRB1 ECD (human) (assay: ELISA).

**Q.** For B5, which EC50 is on record?
**A.** Its EC50 is 0.0221 nM.

**Q.** For B6, which EC50 is on record?
**A.** Its EC50 is 0.0134 nM.

The binders below were run against human KLRB1 on CHO-K1 (human) (assay: FACS).
Sequence of human KLRB1 on CHO-K1 (human) (chain, as listed by the source): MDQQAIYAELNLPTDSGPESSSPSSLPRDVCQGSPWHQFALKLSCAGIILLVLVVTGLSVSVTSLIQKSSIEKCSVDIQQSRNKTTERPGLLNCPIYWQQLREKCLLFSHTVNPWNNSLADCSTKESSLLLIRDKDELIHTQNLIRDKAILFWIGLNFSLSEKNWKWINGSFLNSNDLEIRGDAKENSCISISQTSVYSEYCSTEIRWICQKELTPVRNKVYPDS

**Q.** B5 was tested. Which EC50 did it give?
**A.** Its EC50 is 1.84 nM.

**Q.** With B6 as the binder, how does the EC50 read?
**A.** Its EC50 is 2.35 nM.

Biological target: human KLRB1 ECD (human)
Test: SPR
Remark: another data set of the same source

**Q.** For B7, which Kd is on record?
**A.** Its Kd is 0.12 nM.

**Q.** With B8 as the binder, how does the Kd read?
**A.** Its Kd is 0.0665 nM.

**Q.** With B9 as the binder, how does the Kd read?
**A.** The Kd was 0.124 nM.

**Q.** Which Kd does the source give for B10 here?
**A.** The Kd was 0.0966 nM.

Biological target: human KLRB1 ECD (human)
Test: SPR
Remark: another data set of the same source

**Q.** How did the Kd turn out when B5 was run?
**A.** The Kd was 0.306 nM.

**Q.** B11 was tested. Which Kd did it give?
**A.** The Kd was 1.21 nM.

**Q.** How did the Kd turn out when B12 was run?
**A.** Its Kd is 23.3 nM.

**Q.** How did the Kd turn out when B13 was run?
**A.** The Kd was 3.33 nM.

**Q.** For B14, which Kd is on record?
**A.** Its Kd is 7.03 nM.

**Q.** How did the Kd turn out when B4 was run?
**A.** Its Kd is 0.0521 nM.

**Q.** How did the Kd turn out when B15 was run?
**A.** The Kd was 0.575 nM.

**Q.** Which Kd does the source give for B16 here?
**A.** The Kd was 6.38 nM.

**Q.** Which Kd does the source give for B17 here?
**A.** The Kd was 0.0147 nM.

**Q.** For B18, which Kd is on record?
**A.** The Kd was 17.1 nM.

Biological target: human KLRB1 ECD (human)
Test: ELISA
Remark: another data set of the same source

**Q.** B1 was tested. Which EC50 did it give?
**A.** The EC50 was 0.0197 nM.

**Q.** Which EC50 does the source give for B2 here?
**A.** Its EC50 is 0.0113 nM.

**Q.** For B3, which EC50 is on record?
**A.** Its EC50 is 0.0236 nM.

**Q.** B4 was tested. Which EC50 did it give?
**A.** Its EC50 is 0.0252 nM.

Biological target: T2, cynomolgus KLRB1 ECD (cynomolgus)
T2 chain: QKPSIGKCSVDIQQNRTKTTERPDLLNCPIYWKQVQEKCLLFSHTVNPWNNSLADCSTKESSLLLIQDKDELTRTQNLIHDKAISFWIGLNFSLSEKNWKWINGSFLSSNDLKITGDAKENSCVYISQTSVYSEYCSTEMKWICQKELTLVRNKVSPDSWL
Test: SPR

**Q.** B5 was tested. Which Kd did it give?
**A.** The Kd was 6.61 nM.

**Q.** B6 was tested. Which Kd did it give?
**A.** The Kd was 3.25 nM.

Biological target: human KLRB1 ECD (human)
Test: SPR
Remark: another data set of the same source

**Q.** How did the Kd turn out when B19 was run?
**A.** Its Kd is 0.14 nM.

**Q.** How did the Kd turn out when B10 was run?
**A.** Its Kd is 0.0688 nM.

**Q.** With B20 as the binder, how does the Kd read?
**A.** The Kd was 0.653 nM.

The binders below were run against human KLRB1 on CHO-K1 (human) (assay: competition, CLEC2D, FACS).

**Q.** How did the IC50 turn out when B5 was run?
**A.** The IC50 was 2.54 nM.

**Q.** With B6 as the binder, how does the IC50 read?
**A.** The IC50 was 2.32 nM.

Biological target: human KLRB1 on CHO-K1 (human)
Test: FACS
Remark: another data set of the same source

**Q.** For B1, which EC50 is on record?
**A.** Its EC50 is 5.54 nM.

**Q.** Which EC50 does the source give for B2 here?
**A.** The EC50 was 5.17 nM.

**Q.** For B3, which EC50 is on record?
**A.** The EC50 was 5.44 nM.

**Q.** B4 was tested. Which EC50 did it give?
**A.** The EC50 was 5.87 nM.

Biological target: T2, cynomolgus KLRB1 ECD
Test: ELISA

**Q.** Which EC50 does the source give for B5 here?
**A.** Its EC50 is 0.0182 nM.

**Q.** Which EC50 does the source give for B6 here?
**A.** Its EC50 is 0.0108 nM.

Source: US20260356955 (published 2026)
